Assay [1] has as its target T1, PKC-βII (purified isoform) (Homo sapiens (Human), UniProt P05771 2-621).
T1 construct: also called PKC-beta II
The assay is described as follows: competitive ELISA on purified PKC-βII vs anti-PKC-βII Ab; PRE 100 µM. As for the experimental part:
(§1) Greiner 96 well ELISA plates were coated with the appropriate PKC isoform diluted in PBSN (PBS with Calcium/Magnesium+0.05% Sodium azide w/w). 50 μL/well at 250 ng/mL was used. Control wells contained PBSN only. Plates were incubated overnight at 4° C.
(§2) The plates were washed 3 times with 200 μL of dH₂O per well, then 100 μL of blocking solution was added per well and the plate incubated for 1 h at 37° C. The washing steps with dH₂O were repeated and 50 μL of the appropriate PRE solution (PRE stock solution [20 mM in DMSO] diluted in PBSN) was added and the plate incubated for 1 h at room temperature.
(§3) 50 μL of 1:1000 dilution of Alkaline Phosphatase (AP) conjugated antibody (anti-rabbit for all except zeta, which was anti-goat) was then added and the plate incubated for 1 h at room temperature. Washing with dH₂O was then repeated. Finally, 100 μL of pNPP solution in pNPP buffer (2 mM MgCl₂, 100 mM Sodium bicarbonate in water, pH 9.8) was added to all wells and incubated for 8 minutes for α, βI, βII ε, and ζ, or for 15-20 mins for […] (until sufficient coloration is observed). The reaction was stopped by addition of Stop solution (2N NaOH) and the absorbance at 405 nm was read on a Galaxy Plate reader.

Assay [2] concerns the target T2, PKC-α (purified isoform) (Homo sapiens (Human), UniProt P17252 2-672).
T2 construct: also called PKC-alpha; PKCalpha
Put plainly: competitive ELISA on purified PKC-α vs anti-PKC-α Ab; PRE 200 µM. As for the experimental part: as §1
(§4) After incubation, 5 μL of 1.1:400 anti-PKC (isoform specific antibody) was added per well (to provide a final concentration of 1:4000). For PKC-epsilon, 1.1:800 dilution was used and for PKC-zeta a 1.1:100 dilution was used due to high and low binding affinity, respectively. The plates were then incubated 1 h at room temperature, followed by washing with dH₂O as described above.
as §3

For assay [3], the target named is T2, PKC-α (purified isoform). Put plainly: competitive ELISA on purified PKC-α vs anti-PKC-α Ab; PRE 50 µM. On the procedure:
as §1, §2, §3

In assay [4] the target is T2, PKC-α (purified isoform). The assay is described as follows: competitive ELISA on purified PKC-α vs anti-PKC-α Ab; PRE 100 µM. On the procedure:
as §1, §4, §3

Assay [5] deals with T3, PKC-ε (purified isoform) (Homo sapiens (Human), UniProt Q02156 1-737).
T3 construct: also called PKC-epsilon; PKCepsilon
T3 sequence: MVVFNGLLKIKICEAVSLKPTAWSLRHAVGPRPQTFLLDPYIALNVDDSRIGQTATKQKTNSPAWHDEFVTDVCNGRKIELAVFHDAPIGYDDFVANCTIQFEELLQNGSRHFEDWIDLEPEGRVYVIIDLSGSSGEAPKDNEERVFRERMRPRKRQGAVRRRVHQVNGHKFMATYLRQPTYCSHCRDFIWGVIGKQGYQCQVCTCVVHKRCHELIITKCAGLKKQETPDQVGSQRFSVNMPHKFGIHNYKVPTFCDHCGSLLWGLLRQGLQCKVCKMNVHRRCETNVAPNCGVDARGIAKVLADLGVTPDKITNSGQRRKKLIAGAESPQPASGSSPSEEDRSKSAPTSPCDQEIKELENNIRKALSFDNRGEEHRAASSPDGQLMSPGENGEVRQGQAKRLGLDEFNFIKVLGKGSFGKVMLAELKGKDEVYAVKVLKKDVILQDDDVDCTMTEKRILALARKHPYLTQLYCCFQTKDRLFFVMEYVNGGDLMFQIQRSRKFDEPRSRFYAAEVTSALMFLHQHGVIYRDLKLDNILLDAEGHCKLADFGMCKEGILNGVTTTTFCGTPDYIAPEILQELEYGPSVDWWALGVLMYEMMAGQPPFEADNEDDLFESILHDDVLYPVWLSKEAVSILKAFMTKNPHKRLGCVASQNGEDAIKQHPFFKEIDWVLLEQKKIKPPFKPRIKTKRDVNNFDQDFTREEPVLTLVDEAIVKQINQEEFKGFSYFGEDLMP
The assay is described as follows: competitive ELISA on purified PKC-ε vs anti-PKC-ε Ab; PRE 50 µM. On the procedure:
as §1, §2, §3

Assay [6] has as its target T3, PKC-ε (purified isoform). The assay is described as follows: competitive ELISA on purified PKC-ε vs anti-PKC-ε Ab; PRE 100 µM. As for the experimental part:
as §1, §2, §3

T1 sequence (P05771 other isoform, or with tags, fused parts or gaps limits assumed): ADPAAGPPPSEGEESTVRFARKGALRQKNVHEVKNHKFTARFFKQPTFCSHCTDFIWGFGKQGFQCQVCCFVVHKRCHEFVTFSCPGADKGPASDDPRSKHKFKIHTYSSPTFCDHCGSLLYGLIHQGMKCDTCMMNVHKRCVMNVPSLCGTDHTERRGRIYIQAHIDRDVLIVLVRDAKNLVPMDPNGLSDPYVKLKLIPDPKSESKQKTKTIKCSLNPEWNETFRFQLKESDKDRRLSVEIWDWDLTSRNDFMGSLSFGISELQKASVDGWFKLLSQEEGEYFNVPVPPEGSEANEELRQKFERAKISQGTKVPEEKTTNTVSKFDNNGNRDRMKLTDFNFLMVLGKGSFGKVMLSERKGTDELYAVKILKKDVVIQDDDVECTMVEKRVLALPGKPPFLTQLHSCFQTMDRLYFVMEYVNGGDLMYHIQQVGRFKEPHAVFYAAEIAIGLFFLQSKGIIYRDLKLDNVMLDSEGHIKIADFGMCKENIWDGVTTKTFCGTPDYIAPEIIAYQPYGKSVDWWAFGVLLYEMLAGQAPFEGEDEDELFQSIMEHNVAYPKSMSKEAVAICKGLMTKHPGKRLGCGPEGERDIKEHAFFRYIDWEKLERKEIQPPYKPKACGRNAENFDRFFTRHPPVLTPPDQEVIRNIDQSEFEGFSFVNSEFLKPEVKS

B1: PRE 6 (peptide)
peptide: Ac-KDANQLIGISI-NH2
notes: Synthetic peptide; also called peptide PRE 6
Turning to B1, the “binding capacity (%)” value in assay [1] is 0%.

B2: PRE 4 (peptide)
peptide: Ac-KDAQNLIGISI-NH2
notes: Synthetic peptide; also called peptide PRE 4
With B2, the “binding capacity (%)” value in assay [1] came out at 13.5%; in the assay with PKC-α (purified isoform) [2], 22.8%; with PKC-α (purified isoform) [3], 6.46%; with PKC-α (purified isoform) [4], 21.9%.

B3: PRE 11 (peptide)
peptide: Ac-RDAQNLIGISI-NH2
notes: Synthetic peptide; also called peptide PRE 11
In the case of B3, the “binding capacity (%)” value in the assay with PKC-ε (purified isoform) [5] is 2.25%; with PKC-ε (purified isoform) [6] it was 13%; in the assay with PKC-α (purified isoform) [2], 13.3%; in the assay with PKC-α (purified isoform) [3], 0%; with PKC-α (purified isoform) [4], 5.96%.

B4: PRE 12 (peptide)
peptide: Ac-KDAQNLI-NH2
notes: Synthetic peptide; also called peptide PRE 12; Ac-KDAQNLI-NH2
For B4, the “binding capacity (%)” value with PKC-ε (purified isoform) [5] came to 10.4%; with PKC-ε (purified isoform) [6] it was 0.28%; in the assay with PKC-α (purified isoform) [2] it was 0%; with PKC-α (purified isoform) [3], 3.29%; with PKC-α (purified isoform) [4], 5.16%.

B5: PRE 13 (peptide)
peptide: Ac-RDAQNLI-NH2
notes: Synthetic peptide; also called peptide PRE 13; Ac-RDAQNLI-NH2
Regarding B5, the “binding capacity (%)” value was 1.63% in assay [1], 0% with PKC-ε (purified isoform) [5] and 0% with PKC-ε (purified isoform) [6].

B6: PRE 3 (peptide)
peptide: Ac-AKGIQEVKGGDAQNLIGISI-NH2
notes: Synthetic peptide; also called peptide PRE 3
On to B6, for which the “binding capacity (%)” value with PKC-ε (purified isoform) [5] is 34%; in the assay with PKC-ε (purified isoform) [6], 31.5%; with PKC-α (purified isoform) [2], 22.6%; in the assay with PKC-α (purified isoform) [3] it was 17.5%; with PKC-α (purified isoform) [4], 26.5%.

B7: PRE 7 (peptide)
peptide: Ac-ISIGILQNADK-NH2
notes: Synthetic peptide (retro form of PRE 4); also called peptide PRE 7
Regarding B7, the “binding capacity (%)” value is 8.04% in the assay with PKC-ε (purified isoform) [5]; 14% with PKC-ε (purified isoform) [6]; 6.59% with PKC-α (purified isoform) [2]; 0% with PKC-α (purified isoform) [3]; 6.72% in the assay with PKC-α (purified isoform) [4].
